Assay results as given in patent US20100260668A1 (published 2010).

T1: placental growth factor (PLGF) (UniProt P49763-2 21-149, limits assumed)
T1 construct: also called P1GF
T1 sequence (looked up): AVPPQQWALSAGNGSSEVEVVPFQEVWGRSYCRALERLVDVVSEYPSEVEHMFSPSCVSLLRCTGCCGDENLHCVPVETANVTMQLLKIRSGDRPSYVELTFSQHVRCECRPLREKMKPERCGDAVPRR

B1: DVD485 (bispecific antibody, human IgG1, kappa)
heavy: not shown
light: DIQMTQSPSSLSASVGDRVTITCRASQDVSTAVAWYQQKPGKAPKLLIYSASFLYSGVPSRFSGSGSGTDFTLTISSLQPEDFATTYYCQQSYTGTVTFGQGTKVEIKRTVAAPSVFIFPPDIQMTQSPSSLSASVGDRVTITCRASQVIRRSLAWYQQKPGKAPKLLIYAASNLASGVPSRFSGSGSGTDFTLTISSLQPEDFATYYCQQSNTSPLTFGQGTKVEIKRTVAAPSVFIFPPSDEQLKSGTASVVCLLNNFYPREAKVQWKVDNALQSGNSQESVTEQDSKDSTYSLSSTLTLSKADYEKHKVYACEVTHQGLSSPVTKSFNRGEC
notes: DVD-Ig, HC short / LC long; DLL4 domain N-terminal; also called DLL4 / VEGF DVD-Ig; DVD485H
B2: DVD470 (bispecific antibody, human IgG1, kappa)
heavy: not shown
light: DIQMTQSPSSLSASVGDRVTITCSASQDISNYLNWYQQKPGKAPKVLIYFTSSLHSGVPSRFSGSGSGTDFTLTISSLQPEDFATYYCQQYSTVPWTFGQGTKVEIKRTVAAPSVFIFPPDIQMTQSPSSLSASVGDRVTITCRASQDVSTAVAWYQQKPGKAPKLLIYSASFLYSGVPSRFSGSGSGTDFTLTISSLQPEDFATTYYCQQSYTGTVTFGQGTKVEIKRTVAAPSVFIFPPSDEQLKSGTASVVCLLNNFYPREAKVQWKVDNALQSGNSQESVTEQDSKDSTYSLSSTLTLSKADYEKHKVYACEVTHQGLSSPVTKSFNRGEC
notes: DVD-Ig, HC long / LC long; DLL4 domain C-terminal; also called VEGF / DLL4 DVD-Ig; DVD470H
B3: DVD482 (bispecific antibody, human IgG1, kappa)
heavy: not shown
light: DIQMTQSPSSLSASVGDRVTITCSASQDISNYLNWYQQKPGKAPKVLIYFTSSLHSGVPSRFSGSGSGTDFTLTISSLQPEDFATYYCQQYSTVPWTFGQGTKVEIKRTVAAPSVFIFPPDIQMTQSPSSLSASVGDRVTITCRASQDVSTAVAWYQQKPGKAPKLLIYSASFLYSGVPSRFSGSGSGTDFTLTISSLQPEDFATTYYCQQSYTGTVTFGQGTKVEIKRTVAAPSVFIFPPSDEQLKSGTASVVCLLNNFYPREAKVQWKVDNALQSGNSQESVTEQDSKDSTYSLSSTLTLSKADYEKHKVYACEVTHQGLSSPVTKSFNRGEC
notes: DVD-Ig, HC short / LC long; DLL4 domain C-terminal; also called VEGF / DLL4 DVD-Ig; DVD482H
B4: DVD575 (bispecific antibody, human IgG1, kappa)
heavy: not shown
light: DIVLTQSPDSLAVSLGERVTMNCKSSQSLLNSGMRKSFLAWYQQKPGQSPKLLIYWASTRESGVPDRFTGSGSGTDFTLTISSVQAEDVAVYYCKQSYHLFTFGSGTKLEIKRTVAAPDIQMTQSPSSLSASVGDRVTITCRASQVIRRSLAWYQQKPGKAPKLLIYAASNLASGVPSRFSGSGSGTDFTLTISSLQPEDFATYYCQQSNTSPLTFGQGTKVEIKRTVAAPSVFIFPPSDEQLKSGTASVVCLLNNFYPREAKVQWKVDNALQSGNSQESVTEQDSKDSTYSLSSTLTLSKADYEKHKVYACEVTHQGLSSPVTKSFNRGEC
notes: DVD-Ig, N-term PlGF (AB047) / C-term VEGF (AB071); also called DVD575H; DVD575L
B5: DVD591 (bispecific antibody, human IgG1, kappa)
heavy: not shown
light: DIVLTQSPDSLAVSLGERVTMNCKSSQSLLNSGMRKSFLAWYQQKPGQSPKLLIYWASTRESGVPDRFTGSGSGTDFTLTISSVQAEDVAVYYCKQSYHLFTFGSGTKLEIKRTVAAPDIQMTQSPSSLSASVGDRVTITCRASQVIRRSLAWYQQKPGKAPKLLIYAASNLASGVPSRFSGSGSGTDFTLTISSLQPEDFATYYCQQSNTSPLTFGQGTKVEIKRTVAAPSVFIFPPSDEQLKSGTASVVCLLNNFYPREAKVQWKVDNALQSGNSQESVTEQDSKDSTYSLSSTLTLSKADYEKHKVYACEVTHQGLSSPVTKSFNRGEC
notes: DVD-Ig, N-term PlGF (AB047) / C-term VEGF (AB071); also called DVD591VH; DVD591VL
B6: DVD589 (bispecific antibody, human IgG1, kappa)
heavy: not shown
light: DIVLTQSPDSLAVSLGERVTMNCKSSQSLLNSGMRKSFLAWYQQKPGQSPKLLIYWASTRESGVPDRFTGSGSGTDFTLTISSVQAEDVAVYYCKQSYHLFTFGSGTKLEIKRTVAAPDIQMTQSPSSLSASVGDRVTITCRASQDVSTAVAWYQQKPGKAPKLLIYSASFLYSGVPSRFSGSGSGTDFTLTISSLQPEDFATYYCQQSYTTPPTFGQGTKVEIKRTVAAPSVFIFPPSDEQLKSGTASVVCLLNNFYPREAKVQWKVDNALQSGNSQESVTEQDSKDSTYSLSSTLTLSKADYEKHKVYACEVTHQGLSSPVTKSFNRGEC
notes: also called DVD589VH; DVD589VL
B7: DVD583 (bispecific antibody, human IgG1, kappa)
heavy: not shown
light: DIVLTQSPDSLAVSLGERVTMNCKSSQSLLNSGMRKSFLAWYQQKPGQSPKLLIYWASTRESGVPDRFTGSGSGTDFTLTISSVQAEDVAVYYCKQSYHLFTFGSGTKLEIKRTVAAPSVFIFPPDIQMTQSPSSLSASVGDRVTITCRASQVIRRSLAWYQQKPGKAPKLLIYAASNLASGVPSRFSGSGSGTDFTLTISSLQPEDFATYYCQQSNTSPLTFGQGTKVEIKRTVAAPSVFIFPPSDEQLKSGTASVVCLLNNFYPREAKVQWKVDNALQSGNSQESVTEQDSKDSTYSLSSTLTLSKADYEKHKVYACEVTHQGLSSPVTKSFNRGEC
notes: DVD-Ig, N-term PlGF (AB047) / C-term VEGF (AB071); also called DVD583H; DVD583L
B8: DVD599 (bispecific antibody, human IgG1, kappa)
heavy: not shown
light: DIVLTQSPDSLAVSLGERVTMNCKSSQSLLNSGMRKSFLAWYQQKPGQSPKLLIYWASTRESGVPDRFTGSGSGTDFTLTISSVQAEDVAVYYCKQSYHLFTFGSGTKLEIKRTVAAPSVFIFPPDIQMTQSPSSLSASVGDRVTITCRASQVIRRSLAWYQQKPGKAPKLLIYAASNLASGVPSRFSGSGSGTDFTLTISSLQPEDFATYYCQQSNTSPLTFGQGTKVEIKRTVAAPSVFIFPPSDEQLKSGTASVVCLLNNFYPREAKVQWKVDNALQSGNSQESVTEQDSKDSTYSLSSTLTLSKADYEKHKVYACEVTHQGLSSPVTKSFNRGEC
notes: DVD-Ig, N-term PlGF (AB047) / C-term VEGF (AB071); also called DVD599VH; DVD599VL
B9: DVD581 (bispecific antibody, human IgG1, kappa)
heavy: not shown
light: DIVLTQSPDSLAVSLGERVTMNCKSSQSLLNSGMRKSFLAWYQQKPGQSPKLLIYWASTRESGVPDRFTGSGSGTDFTLTISSVQAEDVAVYYCKQSYHLFTFGSGTKLEIKRTVAAPSVFIFPPDIQMTQSPSSLSASVGDRVTITCRASQDVSTAVAWYQQKPGKAPKLLIYSASFLYSGVPSRFSGSGSGTDFTLTISSLQPEDFATYYCQQSYTTPPTFGQGTKVEIKRTVAAPSVFIFPPSDEQLKSGTASVVCLLNNFYPREAKVQWKVDNALQSGNSQESVTEQDSKDSTYSLSSTLTLSKADYEKHKVYACEVTHQGLSSPVTKSFNRGEC
notes: also called DVD581H; DVD581L
B10: DVD597 (bispecific antibody, human IgG1, kappa)
heavy: not shown
light: DIVLTQSPDSLAVSLGERVTMNCKSSQSLLNSGMRKSFLAWYQQKPGQSPKLLIYWASTRESGVPDRFTGSGSGTDFTLTISSVQAEDVAVYYCKQSYHLFTFGSGTKLEIKRTVAAPSVFIFPPDIQMTQSPSSLSASVGDRVTITCRASQDVSTAVAWYQQKPGKAPKLLIYSASFLYSGVPSRFSGSGSGTDFTLTISSLQPEDFATYYCQQSYTTPPTFGQGTKVEIKRTVAAPSVFIFPPSDEQLKSGTASVVCLLNNFYPREAKVQWKVDNALQSGNSQESVTEQDSKDSTYSLSSTLTLSKADYEKHKVYACEVTHQGLSSPVTKSFNRGEC
notes: also called DVD597VH; DVD597VL
B11: DVD474 (bispecific antibody, human IgG1, kappa)
heavy: not shown
light: DIQMTQSPSSLSASVGDRVTITCRASQVIRRSLAWYQQKPGKAPKLLIYAASNLASGVPSRFSGSGSGTDFTLTISSLQPEDFATYYCQQSNTSPLTFGQGTKVEIKRTVAAPSVFIFPPDIQMTQSPSSLSASVGDRVTITCRASQDVSTAVAWYQQKPGKAPKLLIYSASFLYSGVPSRFSGSGSGTDFTLTISSLQPEDFATTYYCQQSYTGTVTFGQGTKVEIKRTVAAPSVFIFPPSDEQLKSGTASVVCLLNNFYPREAKVQWKVDNALQSGNSQESVTEQDSKDSTYSLSSTLTLSKADYEKHKVYACEVTHQGLSSPVTKSFNRGEC
notes: DVD-Ig, HC long / LC long; DLL4 domain C-terminal; also called VEGF / DLL4 DVD-Ig; DVD474H
B12: DVD486 (bispecific antibody, human IgG1, kappa)
heavy: not shown
light: DIQMTQSPSSLSASVGDRVTITCRASQVIRRSLAWYQQKPGKAPKLLIYAASNLASGVPSRFSGSGSGTDFTLTISSLQPEDFATYYCQQSNTSPLTFGQGTKVEIKRTVAAPSVFIFPPDIQMTQSPSSLSASVGDRVTITCRASQDVSTAVAWYQQKPGKAPKLLIYSASFLYSGVPSRFSGSGSGTDFTLTISSLQPEDFATTYYCQQSYTGTVTFGQGTKVEIKRTVAAPSVFIFPPSDEQLKSGTASVVCLLNNFYPREAKVQWKVDNALQSGNSQESVTEQDSKDSTYSLSSTLTLSKADYEKHKVYACEVTHQGLSSPVTKSFNRGEC
notes: DVD-Ig, HC short / LC long; DLL4 domain C-terminal; also called VEGF / DLL4 DVD-Ig; DVD486H
B13: DVD471 (bispecific antibody, human IgG1, kappa, L234A L235A)
heavy: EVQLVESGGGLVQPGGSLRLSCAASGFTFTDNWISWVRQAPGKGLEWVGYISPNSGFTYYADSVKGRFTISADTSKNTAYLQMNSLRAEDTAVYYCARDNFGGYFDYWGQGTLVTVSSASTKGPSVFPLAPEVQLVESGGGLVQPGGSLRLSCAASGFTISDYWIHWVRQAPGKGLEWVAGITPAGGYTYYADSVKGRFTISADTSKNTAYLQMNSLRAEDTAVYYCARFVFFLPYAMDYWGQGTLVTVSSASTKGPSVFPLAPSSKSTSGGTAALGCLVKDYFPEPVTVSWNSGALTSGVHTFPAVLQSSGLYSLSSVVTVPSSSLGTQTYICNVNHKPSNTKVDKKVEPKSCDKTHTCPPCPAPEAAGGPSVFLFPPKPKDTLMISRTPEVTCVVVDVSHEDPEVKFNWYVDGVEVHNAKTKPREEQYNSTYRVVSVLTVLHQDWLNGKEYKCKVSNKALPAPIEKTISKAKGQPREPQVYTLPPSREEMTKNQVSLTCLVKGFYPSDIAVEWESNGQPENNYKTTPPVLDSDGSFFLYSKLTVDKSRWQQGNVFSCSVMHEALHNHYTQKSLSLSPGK
light: DIQMTQSPSSLSASVGDRVTITCRASQDVSTAVAWYQQKPGKAPKLLIYSASFLYSGVPSRFSGSGSGTDFTLTISSLQPEDFATTYYCQQSYTGTVTFGQGTKVEIKRTVAAPSVFIFPPDIQMTQSPSSLSASVGDRVTITCRASQDVSTAVAWYQQKPGKAPKLLIYSASFLYSGVPSRFSGSGSGTDFTLTISSLQPEDFATYYCQQSYTTPPTFGQGTKVEIKRTVAAPSVFIFPPSDEQLKSGTASVVCLLNNFYPREAKVQWKVDNALQSGNSQESVTEQDSKDSTYSLSSTLTLSKADYEKHKVYACEVTHQGLSSPVTKSFNRGEC
notes: DVD-Ig, HC long / LC long; DLL4 domain N-terminal; also called DLL4 / VEGF DVD-Ig; DVD471H
B14: DVD476 (bispecific antibody, human IgG1, kappa)
heavy: not shown
light: DIQMTQSPSSLSASVGDRVTITCSASQDISNYLNWYQQKPGKAPKVLIYFTSSLHSGVPSRFSGSGSGTDFTLTISSLQPEDFATYYCQQYSTVPWTFGQGTKVEIKRTVAAPDIQMTQSPSSLSASVGDRVTITCRASQDVSTAVAWYQQKPGKAPKLLIYSASFLYSGVPSRFSGSGSGTDFTLTISSLQPEDFATTYYCQQSYTGTVTFGQGTKVEIKRTVAAPSVFIFPPSDEQLKSGTASVVCLLNNFYPREAKVQWKVDNALQSGNSQESVTEQDSKDSTYSLSSTLTLSKADYEKHKVYACEVTHQGLSSPVTKSFNRGEC
notes: DVD-Ig, HC long / LC short; DLL4 domain C-terminal; also called VEGF / DLL4 DVD-Ig; DVD476H

Columns and labels:
[1] = target: T2, biotin-labeled human DLL4 extracellular domain (human, UniProt Q9NR61 27-529, biotin-labeled); assay: DLL4 capture ELISA, DVD-Ig captured by anti-human Fc, biotin-labeled human DLL4 ECD
T2 construct: extracellular domain

[2] = target: biotinylated VEGF (UniProt P15692-4 27-191, limits assumed, biotinylated); assay: VEGF capture ELISA, DVD-Ig captured by anti-human Fc, biotinylated VEGF
[3] = target: T1, placental growth factor (PLGF); assay: ligand-receptor binding competition assay, PlGF binding to VEGFR1; N-terminal VD

Chain of biotinylated VEGF (P15692 other isoform, or with tags, fused parts or gaps limits assumed): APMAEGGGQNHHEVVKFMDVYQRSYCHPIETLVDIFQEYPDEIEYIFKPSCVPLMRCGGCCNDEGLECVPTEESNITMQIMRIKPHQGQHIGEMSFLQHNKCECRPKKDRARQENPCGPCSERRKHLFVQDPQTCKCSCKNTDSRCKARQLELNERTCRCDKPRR

Binder	EC50 [1] [pM]	EC50 [2] [pM]	IC50 [3] [pM]
B1	5450	2500	–
B2	160	270	–
B3	170	220	–
B4	–	–	2900
B5	–	–	3230
B6	–	–	2870
B7	–	–	3250
B8	–	–	3190
B9	–	–	3500
B10	–	–	2940
B11	140	1650	–
B12	160	530	–
B13	170	560	–
B14	210	220	–
